Usually Tm stands for the temperature at the midpoint of the melting transition.

Consider one substance from patent US7449443B2, “Method for stabilization of proteins using non-natural amino acids” (California Institute of Technology, priority 2000, dated 2008).

Format in all cases: physicochemical
The nature of data set [1]: CD thermal unfolding of GCN4-p1 coiled-coil peptides. The procedure:
Circular Dichroism (CD) Analysis. CD spectra were recorded on an Aviv 62DS spectropolarimeter (Lakewood, N.J.) in PBS buffer, pH 7.4. All peptide concentrations were determined by amino acid analysis of a stock solution (5 mg/ml). Experiments were performed in a rectangular cell with pathlength of 1 cm for low concentration samples and pathlength of 1 mm for high concentration samples. Spectra were scanned from 250 nm to 200 nm with data taken every 1 nm. The temperature of the solution was maintained by a thermostatically controlled cuvette holder (HP model 89101A). Temperature scans were performed from 0° C. to 100° C. in 1° C. steps. Three scans were performed on a single sample and averaged. Each data point was collected after 30 seconds of thermal equilibration at the desired temperature. Urea titration scans were performed manually starting with the 8 M concentrated sample followed by serial dilution to the desired urea concentration. At each concentration, the sample was allowed to equilibrate for 5 min before recording the CD signal.
The analysis of CD thermal melting data was performed according to a previously described procedure using a two-state model (Schneider, J. P.; Lear, J. D.; DeGrado, W. F. J. Am. Chem. Soc. 1997, 119, 5742-5743). Temperature-dependent ellipticity data for each protein at different concentrations were fitted globally using a non-linear least-squares fitting procedure supplied with the Origin 6.0 software. For wild-type A1, the concentrations used for curve fitting were 10 and 100 μM, while 2 and 100 μm were used to fit data for the 92% fluorinated A1. The thermodynamic quantities Tm, ΔHm, ΔCp and Kd were parameters of the fitting procedure and are reported in the 1 M standard state. The free energy of folding at any temperature is given by equation 1. ΔG°=ΔHm(1−T/Tm)−ΔCp((Tm−T)+T1n(T/Tm) (1)
The thermal stabilities of the coiled-coil dimers of Leu-GCN4-p1 and Tfl-GCN4-p1 were examined by CD spectroscopy (FIG. 2B). A significant increase in the thermal stability of Tfl-GCN4-p1 as compared to Leu-GCN4-p1 is reflected in an elevation of the thermal denaturation temperature from 48° C. to 61° C. The 13° C. increase in Tm is remarkable in view of the fact that no increase in the thermal stability of GCN4-p1 has been reported based solely on substitution of the leucine residues at the d-positions. […] As expected for a monomer-dimer equilibrium, the denaturation curves depend on the peptide concentrations, and their midpoints shift to higher temperature as the concentrations of peptides are increased (FIG. 2C). The thermodynamic changes associated with the transition (folded dimer to unfolded monomers) is calculated from the melting curves by fitting the data to a monomer-dimer equilibrium (J. P. Schneider, J. D. Lear and W. F. DeGrado, J. Am. Chem. Soc. 119, 5742, 1997). Global analysis of the thermal unfolding curves at two different concentrations, approximately 85 μM and 3 μM, gave a calculated ΔH° of 60.2 kcal mol^−1, Tm of 385.4 K and ΔCp of 530 cal mol^−1 K^−1 for Tfl-GCN4-p1 (1 M standard state); the corresponding values for Leu-GCN4-p1 are 70.3 kcal mol^−1, 365.6 K and 740 cal mol^−1 K^−1 respectively.

Data set [2] is described as follows: Sedimentation equilibrium ultracentrifugation (aggregation state). Conditions: concentration range approximately 10 μM-40 μM. The procedure: Ultracentrifugation. Sedimentation equilibrium analysis of the wild type proteins GCN4-p1 and A1 and the corresponding artificial proteins containing the non-natural amino acids was performed using a Beckman XLI analytical ultracentrifuge, recording interference data and radial absorbance at 236 and 280 nm at the same time. […] The samples were centrifuged at 35000, 40000, 45000 rpm, until equilibrium was reached. Partial specific volumes were calculated by the residue-weighted average method of Cohn and Edsall (Harding, S. E.; Rowe, A. J.; Harton, J. C. Analytic Ultracentrifugation in Biochemistry and Polymer Science; The Royal Society for Chemistry: Cambridge, 1992). Solution densities were estimated using solute concentration-dependent density tables in the CRC Handbook of Chemistry and Physics. The data were fit as single species to provide an estimate of the aggregation states. Curve fitting of analytical ultracentrifuge data was done using Igor Pro (Wavemetrics Inc., Oswego WS) with procedures adapted from Brooks et al. (Brooks, I. S.; Soneson, K. K.; Hensley, P. Biophys. J. 1993, 64, 244) by Dr. James D. Lear.
Secondary structures of wild type polypeptide Leu-GCN4-p1 and the corresponding artificial polypeptide Tfl-GCN4-p1 were analyzed by circular dichroism (CD). […]

Data set [3] in a line: Guanidine hydrochloride (GuHCl) titration monitored by CD at 222 nm. The conditions noted are these: at each temperature examined; 30 μM peptide. Here is the method: The difference in the ability to these molecules to resist denaturation is examined at 30° C. (open symbols) and 50° C. (closed symbols). The ellipticity is monitored at 222 nm and with a peptide concentration of 30 μM. Insert: GuHCl titration midpoint concentration, as defined by the concentration of GuHCl that is needed to denature 50% of the peptides, are plotted as a function of temperature, as described in Examples 5.

[4] abbreviates: global analysis of thermal unfolding curves, 1 M standard state.

Take “Tfl-GCN4-p1: fluorinated GCN4-p1 leucine zipper peptide with trifluoroleucine at the four d-positions”: in data set [1] (CD spectroscopy), the “increase in Tm compared to Leu-GCN4-p1” value came out at 13 °C. The “thermal denaturation temperature (Tm)” value in data set [1] (CD spectroscopy, coiled-coil dimers) was determined as 61 °C. For the same substance, in data set [1] (global analysis of thermal unfolding curves at approximately 85 μM and 3 μM, 1 M standard state), the “ΔH°” value was determined as 60.2 kcal/mol. Also, in data set [1] (setting [4]), the Tm was 112.2 °C and the ΔCp stood at 530 cal mol^−1 K^−1. The fraction dimeric entry in data set [2] was “approximately 85%”. Moreover, the “concentration of GuHCl needed to unfold 50% of the peptide, versus wild-type peptide” value in data set [3] is “higher”.
